Results taken from PMC10105715.

Target: non-natural gp130:IL-11R:LIFR cytokine receptor complex on Ba/F3-gp130:IL-11R:LIFR cells (UniProt P40189)
Sequence (P40189 23-918, chain 1 of 3): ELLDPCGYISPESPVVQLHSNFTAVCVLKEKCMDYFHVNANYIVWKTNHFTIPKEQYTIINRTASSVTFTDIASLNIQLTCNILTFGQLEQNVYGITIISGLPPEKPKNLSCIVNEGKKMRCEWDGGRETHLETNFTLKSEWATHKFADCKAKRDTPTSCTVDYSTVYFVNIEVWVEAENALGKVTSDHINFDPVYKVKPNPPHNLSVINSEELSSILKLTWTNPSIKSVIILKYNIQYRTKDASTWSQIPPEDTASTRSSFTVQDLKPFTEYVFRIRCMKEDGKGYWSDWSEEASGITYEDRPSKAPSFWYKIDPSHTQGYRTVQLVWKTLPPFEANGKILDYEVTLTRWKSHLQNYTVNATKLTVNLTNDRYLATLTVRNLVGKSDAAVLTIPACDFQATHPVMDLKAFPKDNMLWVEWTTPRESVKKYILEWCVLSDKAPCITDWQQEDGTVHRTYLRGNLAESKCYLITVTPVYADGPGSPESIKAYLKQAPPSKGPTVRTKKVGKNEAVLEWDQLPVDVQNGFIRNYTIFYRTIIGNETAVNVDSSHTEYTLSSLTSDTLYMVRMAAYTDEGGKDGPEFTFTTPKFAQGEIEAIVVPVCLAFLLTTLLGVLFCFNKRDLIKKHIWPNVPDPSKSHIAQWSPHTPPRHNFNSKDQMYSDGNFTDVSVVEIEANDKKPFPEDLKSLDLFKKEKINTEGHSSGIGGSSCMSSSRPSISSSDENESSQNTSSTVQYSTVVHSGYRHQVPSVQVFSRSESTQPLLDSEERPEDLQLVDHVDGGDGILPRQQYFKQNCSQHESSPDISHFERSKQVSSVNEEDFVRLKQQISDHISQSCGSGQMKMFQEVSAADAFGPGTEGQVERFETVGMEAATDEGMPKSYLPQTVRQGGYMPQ
Sequence (Q14626 23-422, chain 2 of 3, further chain): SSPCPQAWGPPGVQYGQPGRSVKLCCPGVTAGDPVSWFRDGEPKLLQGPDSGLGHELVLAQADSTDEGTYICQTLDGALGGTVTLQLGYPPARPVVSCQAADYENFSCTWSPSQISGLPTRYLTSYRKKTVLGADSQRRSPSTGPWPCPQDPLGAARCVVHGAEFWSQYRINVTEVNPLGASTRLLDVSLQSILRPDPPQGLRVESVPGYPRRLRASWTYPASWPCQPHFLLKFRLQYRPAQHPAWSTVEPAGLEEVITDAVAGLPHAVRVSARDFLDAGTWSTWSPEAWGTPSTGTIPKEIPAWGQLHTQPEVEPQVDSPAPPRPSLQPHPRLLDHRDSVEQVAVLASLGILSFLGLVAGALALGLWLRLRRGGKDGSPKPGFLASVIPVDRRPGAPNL
Sequence (P42702 45-1097, chain 3 of 3, further chain): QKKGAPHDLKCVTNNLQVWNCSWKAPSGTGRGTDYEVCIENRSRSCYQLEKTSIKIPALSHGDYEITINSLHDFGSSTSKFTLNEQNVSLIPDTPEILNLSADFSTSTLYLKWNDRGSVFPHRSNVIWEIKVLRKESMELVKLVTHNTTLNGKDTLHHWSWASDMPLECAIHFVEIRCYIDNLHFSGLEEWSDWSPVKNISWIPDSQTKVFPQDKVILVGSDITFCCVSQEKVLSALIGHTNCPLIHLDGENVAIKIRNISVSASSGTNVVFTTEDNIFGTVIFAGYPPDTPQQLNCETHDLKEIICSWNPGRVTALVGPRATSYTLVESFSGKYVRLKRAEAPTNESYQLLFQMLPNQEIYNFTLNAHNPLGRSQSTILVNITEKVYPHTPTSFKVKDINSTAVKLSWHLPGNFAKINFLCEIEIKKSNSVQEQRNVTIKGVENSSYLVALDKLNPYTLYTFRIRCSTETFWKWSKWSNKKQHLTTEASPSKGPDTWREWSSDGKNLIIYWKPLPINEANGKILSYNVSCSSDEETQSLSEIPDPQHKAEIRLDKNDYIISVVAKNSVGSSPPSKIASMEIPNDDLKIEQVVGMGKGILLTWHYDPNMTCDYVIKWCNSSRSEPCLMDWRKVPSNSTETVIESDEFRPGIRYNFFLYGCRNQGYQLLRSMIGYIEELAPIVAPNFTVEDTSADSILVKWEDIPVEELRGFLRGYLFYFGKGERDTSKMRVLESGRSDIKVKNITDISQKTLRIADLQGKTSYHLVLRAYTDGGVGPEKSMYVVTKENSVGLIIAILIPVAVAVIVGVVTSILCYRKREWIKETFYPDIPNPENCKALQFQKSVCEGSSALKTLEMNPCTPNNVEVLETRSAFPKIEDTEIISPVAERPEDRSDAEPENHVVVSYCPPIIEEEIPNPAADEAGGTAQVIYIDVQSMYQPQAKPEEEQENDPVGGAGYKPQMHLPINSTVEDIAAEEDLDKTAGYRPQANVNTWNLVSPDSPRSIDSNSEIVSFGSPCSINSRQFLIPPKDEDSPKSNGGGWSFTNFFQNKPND

- proliferation of Ba/F3-gp130:IL-11R:LIFR cells (CellTiter Blue), GIL-11 0.0005–500 ng/ml; EC50: 1.44 ng/mL
Substance: cytokimera GIL-11 (from UniProt P20809 22-57; P15018 64-88; P20809 73-110; P15018 119-138; P20809 129-161; P15018 172-189; P20809 180-199) (ligand)
